In patent publication US20230105209A1 (ACADEMIA SINICA, published 2023):

Molecular target: SARS-CoV-2 spike S2 (SARS-CoV-2, UniProt P0DTC2 686-1213)
Test: ELISA

B1: m31A7 monoclonal antibody (chimeric IgG1) (antibody, V domains shown)
VH: EVQLQQSGPEMVKPGASVKISCKTSGYTFTEYTIYWVKQSHGKSLEWLGGINPNIGDTTYNQKFKGKATLTVDTSSSTAYMELRSLTSEDSAVYYCAREVYNYSFAYWGQGTLVTVSA
VL: DIVMSQSPSSLAVSVGEKVTMSCKSSQSLLYSSNQKNYLAWYQQKLGQTPKLLIYWASSRESGVPDRFTGSGSGTDFTLTISSVRAEDLAVYYCQQYYRYPLTFGVGTKLELKR
notes: also called m31A7 mAb; m31A7 IgG
B1: no binding.
